In the supplement of paper PMC12042874:
± gives the uncertainty stated by the source.

Test: amyloid nucleation score (Sup35N fusion, yeast selection) (log enrichment); library NNK1; higher = more nucleation; inactive = no reads after selection
Outline: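 Sup35N was fused to peptides of 20 random codons and expressed in psi-negative yeast, which were induced with 100 μM copper sulfate for 24 hours and then grown on medium lacking adenine and uracil for 7 days at 30°C. Plasmid inserts from input and output were sequenced on Illumina. The nucleation score is the DiMSum log enrichment of output over input reads, centred on the mode score of non-aggregating sequences. Sequences with under 100 input reads were left out, and random libraries had three technical output replicates.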

Row | Substance | amyloid nucleation score
1 | SYPTALLKSVLFPLVVI | -0.463 ± 0.26
2 | SYSEFSVEGFKGHVGAYGG | -0.136 ± 0.29
3 | SYSEYPHVEYLLLFSMTQWN | 0.43 ± 0.34
4 | SYSFAWGS | 1.82 ± 0.45
5 | SYSSVVSVYFLQIYFF | 4.05 ± 0.054
6 | SYTVFCRVWYDSHRFM | -0.066 ± 0.45
7 | SYVFDKGFIVNVITRCRKKM | 1.44 ± 0.34
8 | SYVIGNTGGSIKSEARGWDI | 0.071 ± 0.35
9 | SYWCLRAYLRLWLL | -0.164 ± 0.42
10 | TADFLERRDMKYLHM | -0.361 ± 1.7
11 | TAIRLVQS | -0.283 ± 0.44
12 | TAMRSHLSVPSNVTLPCIKH | 0.082 ± 0.46
13 | TARFINVDVLSPW | 1.32 ± 0.28
14 | TARFLTKFAPGQSMNAYRCG | -0.033 ± 0.6
15 | TARYTGGNTNIRSGKFLVWI | 0.075 ± 0.35
16 | TAVTCLL | -0.175 ± 1.2
17 | TCDRVNAIVEFWRCR | 1.46 ± 0.12
18 | TCFGL | -0.702 ± 1.2
19 | TCGSYV | 0.215 ± 0.42
20 | TCRFIGEYLRIRYT | 0.367 ± 0.58
21 | TCTYVYFLCSSIYARNITFM | 8.838 ± 0.057
22 | TCVDAVVLM | 0.063 ± 0.62
23 | TDFMFFWGDFMVTYTAVVCR | -0.096 ± 0.44

Row | Substance | amyloid nucleation score
24 | TDLAHLSVSMFDNFSRELVL | -0.323 ± 1.6
25 | TDLLWKTSLLPNVY | 1.71 ± 0.36
26 | TDNDLVHYCTM | 0.029 ± 0.59
27 | TDSSKGRGARRGGSNSSHSW | -0.419 ± 0.61
28 | TDWFSSMLEN | 0.291 ± 0.3
29 | TEAFRSRAFFGWWRSMCRRW | 0.112 ± 0.87
30 | TEFERFFKRDGYWGSRSYSR | 0.221 ± 0.59
31 | TENCDLCKQLAAVLC | -0.812 ± 0.93
32 | TEQYCS | 0.404 ± 1
33 | TFACGKYVVPFCIYVDR | -0.059 ± 0.34
34 | TFEALLTVDSYYSFSLVP | 1.21 ± 0.4
35 | TFGGHNVAGASMHGSFGGSL | 0.242 ± 0.3
36 | TFHAHTLWQGAQVIRQSETR | 0.053 ± 0.47
37 | TFIKNVTNRVHYGNALTHLG | -0.204 ± 0.66
38 | TFKRYI | 1.28 ± 0.56
39 | TFLSTLIALISRFSRSESWM | 1.24 ± 0.93
40 | TFLWC | 0.462 ± 0.4
41 | TFNGFFCRCPSFKIYFHEVL | 0.825 ± 0.24
42 | TFQNVLLLGSLVWNNNKS | 0.24 ± 0.55
43 | TFSHNIIRSCLTKESVSFP | inactive
44 | TFSMSQNWVLNCAYLVIGYH | 4 ± 0.14
45 | TFSRRASDFEVNV | -1.25 ± 2.7
46 | TFTSLNNVVYIDISDTSDKN | 3.81 ± 0.073

Row | Substance | amyloid nucleation score
47 | TFVYLCVAHS | 1.07 ± 0.53
48 | TFYGY | -0.487 ± 1.4
49 | TFYYPINFHTLGLYKLVVML | 0.589 ± 0.33
50 | TGCCFYVSDHF | 7.88 ± 0.071
51 | TGCRGSVMSFDMLFSYILYL | 0.205 ± 0.26
52 | TGKSRDNRNVDGNL | 0.063 ± 0.38
53 | TGMGGV | 0.177 ± 1.2
54 | TGNCAMFPTWLHVIPFSQY | 3.1 ± 0.14
55 | TGNGRWVDFFRYRYGLKSRS | inactive
56 | TGSMVFLMVVAGSCLFGLSE | 0.652 ± 0.24
57 | TGYFNTRVWLDRLDYVLETN | -0.44 ± 0.29
58 | THYYCVLTGKITRRVLYILL | -1.13 ± 0.67
59 | TIFLINIPANFSMGMLHAHR | 0.303 ± 0.86
60 | TIFNLLPMGC | 0.975 ± 0.58
61 | TIFTPNIR | 0.132 ± 0.66
62 | TISAI | 0.142 ± 0.92
63 | TISILCQYQVMGTIFIYVVQ | 1.66 ± 0.13
64 | TKALLQEVPIT | 0.345 ± 1.2
65 | TKFIE | 1.2 ± 0.37
66 | TKIGKYKFAYCNAIAGARVE | 0.766 ± 0.87
67 | TKIVFIVL | 6.02 ± 0.084
68 | TLCYYLVWRR | 0.076 ± 0.29
69 | TLDLTHNLCLG | 0.491 ± 0.37

Row | Substance | amyloid nucleation score
70 | TLDRWTVWDLR | 0.275 ± 0.32
71 | TLGAVHTVHVRFGESSNVFL | 0.055 ± 0.74
72 | TLGSIGLAIGRSTTGGRS | 0.51 ± 0.9
73 | TLHYRWECVLCPACRYGLSD | 1.14 ± 0.68
74 | TLKAVHTLTTD | 2.4 ± 0.23
75 | TLLNDIFLLCCDSTSNDLMC | 1.56 ± 0.43
76 | TLLWGTLSAGHS | inactive
77 | TLNQHY | 0.025 ± 0.55
78 | TLSLFLRKGSRTLRCVCPRG | -0.112 ± 0.33
79 | TLSLTNYELSKQSWMVLC | -0.236 ± 0.64
80 | TLTYPMCGSIG | 1.09 ± 0.47
81 | TLVGKVLADDSRGFINCR | 0.924 ± 0.97
82 | TMCEYSHFLLRAMNNLMENV | -1.57 ± 2.7
83 | TMGSLMFWF | -0.356 ± 0.95
84 | TMHVMVGGYL | 1.38 ± 0.41
85 | TMLMESTIRRRC | -0.021 ± 0.54
86 | TMLTWASRRLDYFSGALCFM | -0.119 ± 0.45
87 | TMVCKGSCFWSSWSITFPLQ | inactive
88 | TMVGTMVSMF | -0.539 ± 0.45
89 | TMVVNLARRAPPVLPSGRMT | 0.71 ± 0.74
